Measured values as given in US20170260289A1 (Novo Nordisk, published 2017).

How the values were obtained:
Test in all cases: cell-based or functional assay
[1] = molecular target: T1, human TFPI alpha (full-length TFPIα) (human, UniProt P10646 29-304)
[2] = molecular target: T2, endogenous TFPI of human plasma (human, UniProt P10646 29-304, limits assumed)
[3] = molecular target: T1, human TFPI alpha (full-length TFPIα); remark: listed apart in the source
[4] = molecular target: T2, endogenous TFPI of human plasma; remark: listed apart in the source
[5] = molecular target: T1, human TFPI alpha (full-length TFPIα); remark: listed apart in the source

Binder	Peak (nM); thrombin generation, FVIII-neutralised plasma + 20 nM TFPIα; 200 nM antibody [1]	Peak (nM); thrombin generation, FVIII-neutralised plasma, endogenous TFPI; 10 nM Fab [2]	Peak (nM); thrombin generation, FVIII-neutralised plasma, endogenous TFPI; 50 nM Fab [2]	Peak (nM); thrombin generation, FVIII-neutralised plasma, endogenous TFPI; 100 nM Fab [2]	ttPeak (min); thrombin generation, FVIII-neutralised plasma, endogenous TFPI; 10 nM Fab [2]	ttPeak (min); thrombin generation, FVIII-neutralised plasma, endogenous TFPI; 50 nM Fab [2]	ttPeak (min); thrombin generation, FVIII-neutralised plasma, endogenous TFPI; 100 nM Fab [2]	Peak (nM); thrombin generation, FVIII-neutralised plasma + 10 nM TFPIα; 10 nM Fab [3]	Peak (nM); thrombin generation, FVIII-neutralised plasma + 10 nM TFPIα; 50 nM Fab [3]	Peak (nM); thrombin generation, FVIII-neutralised plasma + 10 nM TFPIα; 100 nM Fab [3]	ttPeak (min); thrombin generation, FVIII-neutralised plasma + 10 nM TFPIα; 10 nM Fab [3]	ttPeak (min); thrombin generation, FVIII-neutralised plasma + 10 nM TFPIα; 50 nM Fab [3]	ttPeak (min); thrombin generation, FVIII-neutralised plasma + 10 nM TFPIα; 100 nM Fab [3]	ttPeak (min); thrombin generation, FVIII-neutralised plasma + 20 nM TFPIα; 200 nM antibody [1]	also measured
mAb 1F91 (antibody, IgG1, V domains shown) VH: DVQLQESGPGLVKPSQSLSLTCTVSGYSITSDYAWNWIRQFPGNKLEWMGYISYSGSTSYNPSLKSRISITRDTSKNQFFLQLNSVTTEDTATYYCARWAYDGPWGQGTLVTVSA VL: QIVLSQSPALLSASPGEKVTMTCRASSSVSHMHWYQQKPGSSPKPWIYATSNLASGVPARFSGSGSGTSYSLTITRVEAEDAATYYCQQWSSNPFTFGSGTKLEIKR	0 nM														
Fab 0295 (Fab, V domains shown) VH: QVQLKQSGPGLVQPSQSLSITCTVSGFSLTNYGVHWVRQSPGKGLEWLAVIWRGGSIDYNAAFMSRLSITKDNSKSQVFFKMNSLQADDTAIYYCAKNSHGNYVGYAMDYWGQGTSVTVSS VL: GIVMTQSQKFMSTTVGDRVSITCKASQSVGPAVAWYQQKPGQSPKLLIYSASNRYTGVPDRFTGSGSGADFTLTISNLHSEDLADYFCQQYTSYPTFGGGTKLEIKR		94 nM	101 nM	103 nM	8.4 min	8.2 min	8.2 min	10.9 nM	31.8 nM	33.8 nM	25.2 min	11.5 min	10.8 min		
mAb 2F22 (antibody, IgG1, V domains shown) VH: QVQLKQSGPGLVQPSQSLSITCTVSGFSLTNYGVHWVRQSPGKGLEWLAVIWRGGSIDYNAAFMSRLSITKDNSKSQVFFKMNSLQADDTAIYYCAKNSHGNYVGYAMDYWGQGTSVTVSS VL: GIVMTQSQKFMSTTVGDRVSITCKASQSVGPAVAWYQQKPGQSPKLLIYSASNRYTGVPDRFTGSGSGADFTLTISNLHSEDLADYFCQQYTSYPTFGGGTKLEIKR	23.7 nM													13.6 min	
mAb 0336 (antibody, human IgG1, kappa, V domains shown) VH: QVQLKQSGPGLVQPSQSLSITCTVSGFSLTNYGVHWVRQSPGKGLEWLAVIWRGGSIDYNAAFMSRLSITKDNSKSQVFFKMNSLQADDTAIYYCAKNSHGNYVGYAMDYWGQGTSVTVSS VL: GIVMTQSQKFMSTTVGDRVSITCKASQSVGPAVAWYQQKPGQSPKLLIYSASNRYTGVPDRFTGSGSGADFTLTISNLHSEDLADYFCQQYTSYPTFGGGTKLEIKR															Peak (nM); thrombin generation, FVIII-neutralized plasma, no TFPI added; 10.0 nM mAb [4]: 140 nM; ttPeak (min); thrombin generation, FVIII-neutralized plasma, no TFPI added; 10.0 nM mAb [4]: 7.8 min; Peak (nM); thrombin generation, FVIII-neutralized plasma + 10 nM TFPI alpha; 100.0 nM mAb [5]: 44.9 nM; ttPeak (min); thrombin generation, FVIII-neutralized plasma + 10 nM TFPI alpha; 100.0 nM mAb [5]: 11.7 min
mAb 2F3 (antibody, IgG1, V domains shown) VH: QVQLKQSGPGLVQPSQSLSITCTVSGFSLSSYGVHWVRQSPGKGLEWLGVIWRGGSTDFNAAFMSRVSFTKDNSKSQVFFKMNSLQADDTAIYYCAKNSHGNYVGYAMDYWGQGTSVTVSS VL: DIVMTQSQKFMSTTVGDKVSIPCKASENVGAAVAWYQQKPGQSPTLLIYSASNRYTGIPDRFTGSGSGTDFTLTIRTVQSEDLADYFCQQYTNYPTFGGGTKLEIKR	20.9 nM													14.6 min	
Fab 0088 (Fab, V domains shown) VH: EVQLVESGGGLVKPGGSLRLSCAASGFTFSNYAMSWVRQTPEKRLEWVATISRSGSYSYFPDSVQGRFTISRDNAKNSLYLQMNSLRAEDTAVYYCARLGGYDEGDAMDSWGQGTTVTVSS VL: DIVMTQTPLSLSVTPGQPASISCKSSQSLLESDGKTYLNWYLQKPGQSPQLLIYLVSILDSGVPDRFSGSGSGTDFTLKISRVEAEDVGVYYCLQATHFPQTFGGGTKVEIKR		85.6 nM	85.2 nM	90.2 nM	11.5 min	11.6 min	11.6 min	12.7 nM	42.9 nM	54.2 nM	29 min	21.2 min	20.2 min		
mAb 2021 (antibody, IgG4, V domains shown) VH: EVQLVESGGGLVKPGGSLRLSCAASGFTFSNYAMSWVRQTPEKRLEWVATISRSGSYSYFPDSVQGRFTISRDNAKNSLYLQMNSLRAEDTAVYYCARLGGYDEGDAMDSWGQGTTVTVSS VL: DIVMTQTPLSLSVTPGQPASISCKSSQSLLESDGKTYLNWYLQKPGQSPQLLIYLVSILDSGVPDRFSGSGSGTDFTLKISRVEAEDVGVYYCLQATHFPQTFGGGTKVEIKR	17.2 nM													26.2 min	
Fab 0313 (Fab, V domains shown) VH: EVQLVESGGGLVKPGGSLRLSCAASGFTFSNYAMSWVRQAPGKGLEWVSTISRSGSYSYYADSVKGRFTISRDNAKNSLYLQMNSLRAEDTAVYYCARLGGYDEGDAMDSWGQGTTVTVSS VL: DIVMTQTPLSLSVTPGQPASISCKSSQSLLESDGKTYLNWYLQKPGQSPQLLIYLVSILDSGVPDRFSGSGSGTDFTLKISRVEAEDVGVYYCLQATHFPQTFGGGTKVEIKR		10 nM	19.8 nM	29.6 nM	21 min	10.2 min	8.9 min	0.4 nM	0.8 nM	1.4 nM	106 min	76.2 min	48.1 min		
